Assay: soluble on expression in E. coli; label from the status in PepcDB or PDB records
With “MEDTAEENNESIDDQPSTSTATDPNQTRETEKEKGDDEMFRLLQATDEILENKAKSMNLSSLNVRSILHHLIKYPSTIDVLLGIRENDDLPSVRNMRSRKKPDDSGASSTVNTPKKFGALRIEDRGPKSFLDLEYEEDDEYDDDYIEENDTSTRNKLNAGSEEDEENDDEEEIEDEGEDEDDEEQDELEEDGEHEITGSEACTSGQNDTMHALLFDETSEDVQNEEDYVLNMTLNDTRAESVAPIPTLDNVDDDGFYRDFVTGINRTEKDNDNLEVLDTEDDPDDEDYNVCADDGLNVEDWDETRQDKTTQIPRHELKALMIDTLLAEKEIPLNAFPEEAINGEEHRKSQKVKDAEVYERINTSISSSSESCSLLKDSLATFRPQELQQLNMQLEQHVQLLTQLVVTCHHDVNLSHVRNSSQLMMNELDDIRQQKIYPTVFDVRNLDAAIESCHDINAFDAVDESFLKYAENTEGYGGIALRPEAAVVLSRSNAIRYPALLPSRQPFFIETPIPFLSEEDLMLAVALLQFAHLPRRGEKEMIDRYTAIQQHCLPARSSYKIRTHLKSMRRSDKNPIHQIMQAAEKGVCKLVLPLKSWQESDTPICQWPPASQPGWYRRFQETFNVTEERKILRKHVSTMVLTPVKNKDRQDQEASEATFESGEEGEDDEFVNMGTAPDGRKIIMGREHIEDLVHQLIKQNEISPSKRRKNPTPMKLSTMIQLEEAEKRIADSQKNSCGGQTISALSNVSGDSNVDNNGTHEKELMPSTSSIDSLESINNQETSKFPRPLPMSDQPTLNTSCHITTTTCSVSYEDVDVGTLKKSYVEITASKYETNSNSCFSYPIPPTPGRRSPDDFDDYFMDLESNSLMWPQTPYAVTDENPQTPRGFSASESSEPIDFSSLGKATSLDTEEIVFQSTSCQRPMGYCSDFGEFSNSSSLPEEIPVPSHQRTPQESAIEDDSSMPGLDMVPLYEEDVEECIIEDIEEEEAPIKQGLVNSRPPLRFKKEVKAGITNLAPSRKRTRIEREAMGSVGLDDEQLHDKQKENIMRKVIEDVNQRLFMHTDTYQRFKEAITDENLTDFEKVTRTIIILANHPELLNLVLLNAPPEAVISDLQCDHNYQSYKVAIEMIMDIERYITAAKLKEPSLKGLFRYIQSFLEDKPNMTDEQATKRFYELFGQDRPLWKKLESRFWCLPYKARPRLENYEYIDLTGLETMSKREKRDWNSIPPRFETVDDIDQVMGSVYRASKNEPPSNLVVKCGEFCIRNDDETYTQLEITERLWTRKDDISLLTSYNEALKTIPNFTVSQMPSLISDLSFGEKSIIARLQYLLTELKSLD” the “soluble on expression in E. coli” value was “soluble”. With “SAGRGKLIAVIGDEDTVTGFLLGGIGELNKNRHPNFLVVEKDTTINEIEDTFRQFLNRDDIGIILINQYIAEMVRHALDAHQRSIPAVLEIPSKEHPYDAAKDSILRRAKGMFTAEDLR” the “soluble on expression in E. coli” value was “soluble”. In the case of “MAHHHHHHMKCVLVVHSGGERMQRSCDLPDGVSTQEQLRAFVRSQDLRLESLDFTFAASLVRLTAGAAEKKGEKVVLREDADVQQLLKTAKQQRATHVLTFEVTISMSSSSPRNLGSFLSAEYAVDKDLVTLHVFAPLACPSRGKNPSYQEKMFIIPTRCVLESLARAVEDTLSIKLTNSGMKLVLYTMPQQPNGDQVEILYDTSALELLRQHTSQSTPGSTHLRHPYANPENYV”, the “soluble on expression in E. coli” value is reported as “not soluble”. With “GPGSMSTSEGNAANRFAGRVKQAEDPFVKALRIKVNGLKRNMKDLEFAKKEVVCETARLESIRDTNPDRVKQQENVIAEAQMMIPHSENRVRAAIKDLQDFLDTHENDAEEGELMQDARTTLESAQLTLSKQ” the “soluble on expression in E. coli” value was “soluble”. With “MGSDKIHHHHHHMNSSVKTRILQPLRIGKHIARHPIIQGAMAVRVSGAKLAGAVANAGGVGVIASLGLGLDSPYFDKRKKRSFFTANRLALIDELAKARSISPDGVIGVNILVATKDYSVLAQTAAAQGADIIITGAGLPLALPEYTAAYPDVALVPSVANLEAAQLICETWQSRYHRLPDALIVENCQQVGGHFTQCEQVNIPGFSLELVIRQLRDYCQNHLGARIPLIVSGGISDRTDIDRMIAIGADGVQIGTRFVTTVECDADQRYKDYHLQAQPEDIVTVPSPVGKPSRALHNLFTEQVMSNSSNLEKRCIANCLETCLCRDHGKTYCLLQALAQAARGDVENGLIFSGANAGYTQDIISVPELMTELTQAHTIEVSSSDKY” the “soluble on expression in E. coli” value was “not soluble”.
